Bridge positions count the residues as written; N and C are the ends.
T1: COX1(h) (human), P23219
T1 chain: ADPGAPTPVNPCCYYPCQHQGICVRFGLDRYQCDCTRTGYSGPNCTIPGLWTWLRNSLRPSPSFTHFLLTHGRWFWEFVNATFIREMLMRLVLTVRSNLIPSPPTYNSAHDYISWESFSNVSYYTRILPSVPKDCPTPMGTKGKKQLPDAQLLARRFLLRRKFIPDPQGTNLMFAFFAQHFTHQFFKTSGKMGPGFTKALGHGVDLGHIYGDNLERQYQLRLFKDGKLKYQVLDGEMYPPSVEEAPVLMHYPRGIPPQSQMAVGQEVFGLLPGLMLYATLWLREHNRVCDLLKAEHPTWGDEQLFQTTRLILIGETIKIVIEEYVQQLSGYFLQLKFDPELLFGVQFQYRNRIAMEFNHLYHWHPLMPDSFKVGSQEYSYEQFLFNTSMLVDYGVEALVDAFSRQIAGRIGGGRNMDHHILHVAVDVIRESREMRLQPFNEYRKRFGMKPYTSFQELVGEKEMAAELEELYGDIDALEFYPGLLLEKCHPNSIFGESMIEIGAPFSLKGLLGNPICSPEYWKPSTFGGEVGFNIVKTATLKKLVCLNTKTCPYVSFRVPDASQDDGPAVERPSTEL

T2: Deubiquitinase OTUD6B, Q8N6M0
T2 chain: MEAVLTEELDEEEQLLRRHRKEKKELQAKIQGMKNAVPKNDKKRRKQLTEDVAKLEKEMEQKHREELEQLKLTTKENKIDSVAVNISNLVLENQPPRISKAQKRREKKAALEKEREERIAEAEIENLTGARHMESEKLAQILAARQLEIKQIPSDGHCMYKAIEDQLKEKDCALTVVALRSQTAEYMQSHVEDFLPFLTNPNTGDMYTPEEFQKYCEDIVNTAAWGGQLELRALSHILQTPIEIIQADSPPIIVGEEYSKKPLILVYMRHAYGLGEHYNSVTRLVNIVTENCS

T3: M1 (h) (human), P11229
T3 chain: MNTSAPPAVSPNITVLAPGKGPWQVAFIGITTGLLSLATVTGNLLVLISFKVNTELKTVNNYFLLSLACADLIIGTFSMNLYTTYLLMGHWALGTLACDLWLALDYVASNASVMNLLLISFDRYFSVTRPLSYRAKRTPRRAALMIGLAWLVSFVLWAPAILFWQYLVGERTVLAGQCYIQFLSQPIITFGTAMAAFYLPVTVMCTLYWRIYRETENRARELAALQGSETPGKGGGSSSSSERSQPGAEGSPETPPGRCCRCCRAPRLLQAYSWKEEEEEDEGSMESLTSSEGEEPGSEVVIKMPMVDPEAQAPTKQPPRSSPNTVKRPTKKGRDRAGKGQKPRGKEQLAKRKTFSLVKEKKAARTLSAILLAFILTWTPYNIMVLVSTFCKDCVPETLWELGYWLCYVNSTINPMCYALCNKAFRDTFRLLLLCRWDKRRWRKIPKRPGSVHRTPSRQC

T4: alpha 1A (h) (human), P35348
T4 chain: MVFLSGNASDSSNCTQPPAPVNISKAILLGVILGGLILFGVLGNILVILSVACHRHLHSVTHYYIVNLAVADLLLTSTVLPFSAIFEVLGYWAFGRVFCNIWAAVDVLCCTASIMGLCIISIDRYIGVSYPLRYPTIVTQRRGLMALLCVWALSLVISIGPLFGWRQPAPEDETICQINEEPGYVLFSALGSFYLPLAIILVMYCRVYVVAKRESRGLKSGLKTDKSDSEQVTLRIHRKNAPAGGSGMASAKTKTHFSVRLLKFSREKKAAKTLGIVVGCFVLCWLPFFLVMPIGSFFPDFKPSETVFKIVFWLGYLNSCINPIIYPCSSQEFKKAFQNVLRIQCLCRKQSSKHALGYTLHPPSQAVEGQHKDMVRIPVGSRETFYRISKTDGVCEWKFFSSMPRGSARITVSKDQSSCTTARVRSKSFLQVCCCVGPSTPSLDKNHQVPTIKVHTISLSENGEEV

T5: alpha 2A (h) (human), P08913
T5 chain: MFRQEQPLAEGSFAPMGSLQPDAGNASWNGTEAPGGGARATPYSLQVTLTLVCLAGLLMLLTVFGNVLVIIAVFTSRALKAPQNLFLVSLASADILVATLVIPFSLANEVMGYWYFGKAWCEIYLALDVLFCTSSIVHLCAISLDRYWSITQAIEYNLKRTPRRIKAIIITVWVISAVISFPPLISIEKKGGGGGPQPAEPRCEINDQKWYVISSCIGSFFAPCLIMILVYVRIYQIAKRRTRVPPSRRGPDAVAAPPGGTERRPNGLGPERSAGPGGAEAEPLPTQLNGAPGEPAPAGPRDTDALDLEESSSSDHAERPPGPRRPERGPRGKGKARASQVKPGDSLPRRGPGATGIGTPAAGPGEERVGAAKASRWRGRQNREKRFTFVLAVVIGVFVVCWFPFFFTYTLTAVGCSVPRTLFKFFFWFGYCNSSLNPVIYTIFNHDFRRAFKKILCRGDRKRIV


Legend:
[1] = target: T1, COX1(h) (human), P23219; test: cell-based or functional assay
[2] = target: T2, Deubiquitinase OTUD6B, Q8N6M0; test: cell-based or functional assay
[3] = target: Ubiquitin carboxyl-terminal hydrolase 14, P54578; test: cell-based or functional assay
[4] = target: 5-HT transporter (h) (human), P31645; test: radioligand displacement (antagonist radioligand), 10 µM; settings: remark: other sources report otherwise
[5] = target: H1 (h) (human), P35367; test: as above; settings: remark: other sources report otherwise
[6] = target: KV channel; test: as above
[7] = target: T3, M1 (h) (human), P11229; test: as above; settings: remark: other sources report otherwise
[8] = target: M3 (h) (human), P20309; test: as above; settings: remark: other sources report otherwise
[9] = target: NMDA; test: as above
[10] = target: T4, alpha 1A (h) (human), P35348; test: as above; settings: remark: other sources report otherwise
[11] = target: T5, alpha 2A (h) (human), P08913; test: as above; settings: remark: other sources report otherwise
[12] = target: beta 2 (h) (human), P07550; test: as above; settings: remark: other sources report otherwise

Chain of Ubiquitin carboxyl-terminal hydrolase 14, P54578 (P54578 whole entry): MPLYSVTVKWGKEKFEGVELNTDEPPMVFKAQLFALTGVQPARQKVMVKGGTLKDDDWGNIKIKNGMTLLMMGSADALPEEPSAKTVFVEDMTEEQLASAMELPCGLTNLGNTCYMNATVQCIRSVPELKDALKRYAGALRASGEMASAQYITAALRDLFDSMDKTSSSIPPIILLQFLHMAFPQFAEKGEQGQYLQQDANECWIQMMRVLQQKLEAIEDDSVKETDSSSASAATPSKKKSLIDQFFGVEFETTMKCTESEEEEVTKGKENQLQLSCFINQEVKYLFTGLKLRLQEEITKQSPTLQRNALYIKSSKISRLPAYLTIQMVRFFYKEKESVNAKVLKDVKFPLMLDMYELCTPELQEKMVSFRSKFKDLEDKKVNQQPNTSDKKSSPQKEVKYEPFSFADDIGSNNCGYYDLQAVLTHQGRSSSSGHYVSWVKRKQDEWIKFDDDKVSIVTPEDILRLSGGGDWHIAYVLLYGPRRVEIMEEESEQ
Chain of M3 (h) (human), P20309 (P20309 whole entry): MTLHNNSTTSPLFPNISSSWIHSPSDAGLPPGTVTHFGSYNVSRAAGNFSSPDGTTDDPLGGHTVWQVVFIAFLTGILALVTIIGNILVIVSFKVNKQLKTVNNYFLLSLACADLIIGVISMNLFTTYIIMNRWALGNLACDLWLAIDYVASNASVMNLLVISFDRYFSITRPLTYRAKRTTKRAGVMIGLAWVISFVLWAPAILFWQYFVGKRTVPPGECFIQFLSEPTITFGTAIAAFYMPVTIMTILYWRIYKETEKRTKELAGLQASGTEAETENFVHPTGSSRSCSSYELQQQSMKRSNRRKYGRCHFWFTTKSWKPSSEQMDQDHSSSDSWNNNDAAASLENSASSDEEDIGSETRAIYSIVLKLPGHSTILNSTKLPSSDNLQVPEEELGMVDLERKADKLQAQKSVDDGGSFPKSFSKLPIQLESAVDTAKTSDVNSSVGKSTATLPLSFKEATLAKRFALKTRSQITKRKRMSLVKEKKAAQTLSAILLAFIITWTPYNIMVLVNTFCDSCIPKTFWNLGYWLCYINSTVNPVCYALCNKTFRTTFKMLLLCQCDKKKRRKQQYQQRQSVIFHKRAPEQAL
Chain of 5-HT transporter (h) (human), P31645 (P31645 whole entry): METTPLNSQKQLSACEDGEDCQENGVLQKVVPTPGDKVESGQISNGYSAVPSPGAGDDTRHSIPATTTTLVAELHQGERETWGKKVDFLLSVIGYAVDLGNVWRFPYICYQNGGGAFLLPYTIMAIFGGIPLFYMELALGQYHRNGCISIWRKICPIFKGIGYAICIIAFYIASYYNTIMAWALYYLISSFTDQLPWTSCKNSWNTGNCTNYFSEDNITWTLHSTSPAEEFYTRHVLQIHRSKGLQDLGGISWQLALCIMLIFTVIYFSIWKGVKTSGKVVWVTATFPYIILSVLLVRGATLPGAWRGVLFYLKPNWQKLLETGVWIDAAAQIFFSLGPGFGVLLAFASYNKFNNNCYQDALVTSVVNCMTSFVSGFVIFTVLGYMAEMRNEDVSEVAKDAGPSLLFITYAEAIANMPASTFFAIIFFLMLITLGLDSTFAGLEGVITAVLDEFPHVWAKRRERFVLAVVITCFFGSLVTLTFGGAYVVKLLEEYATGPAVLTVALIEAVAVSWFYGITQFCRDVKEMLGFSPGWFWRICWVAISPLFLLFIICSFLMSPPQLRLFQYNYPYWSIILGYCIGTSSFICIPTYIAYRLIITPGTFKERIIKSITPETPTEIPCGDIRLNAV
Chain of H1 (h) (human), P35367 (P35367 whole entry): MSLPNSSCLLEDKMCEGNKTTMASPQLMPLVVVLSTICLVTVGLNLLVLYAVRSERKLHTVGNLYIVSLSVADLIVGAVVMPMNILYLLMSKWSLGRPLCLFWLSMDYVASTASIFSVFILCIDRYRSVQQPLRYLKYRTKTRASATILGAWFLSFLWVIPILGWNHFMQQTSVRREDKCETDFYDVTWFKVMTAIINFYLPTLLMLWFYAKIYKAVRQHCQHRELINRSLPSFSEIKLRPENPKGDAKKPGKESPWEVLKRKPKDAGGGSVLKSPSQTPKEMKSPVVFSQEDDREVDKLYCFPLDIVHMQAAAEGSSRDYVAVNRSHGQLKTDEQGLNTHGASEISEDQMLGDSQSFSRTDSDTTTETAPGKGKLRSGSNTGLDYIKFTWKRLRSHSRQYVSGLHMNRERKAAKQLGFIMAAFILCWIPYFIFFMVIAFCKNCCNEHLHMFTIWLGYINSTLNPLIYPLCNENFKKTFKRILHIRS

Row | Binder | % inhibition of control enzyme activity, compound at 10 µM [1] [%] | Percentage inhibition (%) at 1 µM [2] [%] | Percentage inhibition (%) at 10 µM [2] [%] | Percentage inhibition (%) at 1 µM [3] [%] | Percentage inhibition (%) at 10 µM [3] [%] | % Inhibition of Specific Binding [4] [%] | % Inhibition of Specific Binding [5] [%] | % Inhibition of Specific Binding [6] [%] | % Inhibition of Specific Binding [7] [%] | % Inhibition of Specific Binding [8] [%] | % Inhibition of Specific Binding [9] [%] | % Inhibition of Specific Binding [10] [%] | % Inhibition of Specific Binding [11] [%] | % Inhibition of Specific Binding [12] [%]
1 | Hex-CPPTQFCD-NH2 (bridge 1-7; not fully specified (bridges); printed as Hex-[Cys(tMeBn(DOTA-PP))-Pro-Pro-Thr-Gln-Phe-Cys]-Asp-NH2) [Hex-[Cys(tMeBn(DOTA-PP))-Pro-Pro-Thr-Gln-Phe-Cys]-Asp-NH2] | 10 | 2 | 15 | -1 | 5 | -3 | 11 | -5 | 6 | 10 | 9 | 2 | -9 | 4
2 | Hex-CPPTQFC-OH (bridge 1-7; not fully specified (bridges); printed as Hex-[Cys(tMeBn(DOTA-AET))-Pro-Pro-Thr-Gln-Phe-Cys]-OH) [Hex-[Cys(tMeBn(DOTA-AET))-Pro-Pro-Thr-Gln-Phe-Cys]-OH] | 8 | 0 | 0 | 1 | 2 | -8 | 4 | 4 | 8 | 1 | 1 | -12 | 2 | 8
